These results are taken from article PMC6123645.

The target of this assay is cBid 126C-DAC (caspase-8 cleaved Bid, single cysteine 126C, labelled with DAC) (UniProt P70444). Kind of assay: FRET or BRET.

pKd: −log10 of the molar value.

“Bax 126C-NBD S184E (phosphomimetic Bax, single cysteine 126C, labelled with NBD) (from UniProt Q07812 1-192) (natural protein)” had a pKd of 7.48.

For orientation: pKd means the negative decadic logarithm of the Kd, by convention in mol/L.
